For 67 sequences, protein stability index results are on record in the supplement of paper PMC10724198.

The subject of series [1] is Saccharomyces cerevisiae. Briefly: protein stability index of tFT-peptide fusion in deletion strain of DAS1 (PSI (0-1 scale)); higher = more stable (slower turnover). The method, then:
(§1)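 MPS profiling in S. cerevisiae of two library types built from selected 12-aa C-degron peptides (IN1, IN2, LN1, LN3, VN2, R1-R5, W1-W3, Atg1 and Rpa12 C-termini): saturation mutagenesis libraries and C-terminal +1 capping libraries (13 aa). Each peptide is fused to the C-terminus of a sfGFP-mCherry timer, after a GGGS linker. Cells are FACS-sorted into 8 mCherry/sfGFP bins and sequenced. PSI runs from 0 (unstable) to 1 (stable), measured once in wild type and in the das1Δ or doa10Δ background.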

Series [2] relates to Saccharomyces cerevisiae. Briefly: protein stability index of tFT-peptide fusion in wild type (PSI (0-1 scale)); higher = more stable (slower turnover). The settings on record: genetic background: wild type. The method, then: as §1
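For protein stability index of tFT-peptide fusion in deletion strain of DAS1 in this document: PSI is a weighted mean of each variant's read distribution over the sorted stability bins, computed only for variants having over 10 reads in total.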
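For protein stability index of tFT-peptide fusion in wild type in this document: PSI derived as read-weighted mean over the 8 sorting bins, only variants exceeding 10 total reads kept, mCherry placed adjacent to the peptide and sfGFP distal.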

As for FSMRWTFRYWVNR, the protein stability index in series [1] is 0.562; in series [2], 0.559.

For FSMRWTFRYWVNS, the protein stability index was 0.542 in series [1] and 0.194 in series [2].

With FSMRWTFRYWVNT, the protein stability index in series [1] was determined as 0.539; in series [2], 0.318.

As for FSMRWTPRYWVN, the protein stability index in series [1] came out at 0.59; in series [2], 0.0631.

FSMRWTVRYWVN: the protein stability index in series [1] stood at 0.454; in series [2] it was 0.0513.

Take FSMYWTFRYWVN: the results for the protein stability index in series [1] and in series [2] were 0.399 and 0.0583, respectively.

As for FSVRWTFRYWVN, the results for the protein stability index in series [1] and in series [2] were 0.419 and 0.0298, respectively.

In the case of GRGAVGGWRLVG, the protein stability index in series [1] is 0.671; in series [2], 0.19.

With IKHKKGQKQKIN, the protein stability index was 0.608 in series [1] and 0.109 in series [2].

Regarding ITSCGYKFRTNN, the results for the protein stability index in series [1] and in series [2] were 0.674 and 0.208, respectively.

As to KDHKKGQKQKIN, the protein stability index in series [1] was 0.604; in series [2] it was 0.0956.

Regarding KKCKKGQKQKIN, the protein stability index in series [1] came out at 0.593; in series [2], 0.102.

Take KKHKKEQKQKIN: the results for the protein stability index in series [1] and in series [2] were 0.678 and 0.0895, respectively.

Consider KKHKKGQKFKIN, for which the protein stability index in series [1] was determined as 0.572; in series [2] it was 0.158.

For KKHKKGQKNKIN, the protein stability index in series [1] stood at 0.596; in series [2] it was 0.096.

With KKHKKGQKQAIN, the protein stability index is 0.6 in series [1] and 0.57 in series [2].

As for KKHKKGQKQKEN, the protein stability index is 0.82 in series [1] and 0.57 in series [2].

Turning to KKHKKGQKQKING, the protein stability index in series [1] was 0.653; in series [2] it was 0.293.

With KKHKKGQKQKIT, the figures for the protein stability index in series [1] and in series [2] were 0.598 and 0.263, respectively.

Turning to KKHKKGQKQKIY, the protein stability index in series [1] was determined as 0.594; in series [2] it was 0.255.

With KKHKKGQKQKRN, the protein stability index came to 0.575 in series [1] and 0.5 in series [2].

KKHKKGQKQPIN: the protein stability index in series [1] stood at 0.587; in series [2], 0.637.

In the case of KKHKKGQKSKIN, the values for the protein stability index in series [1] and in series [2] were 0.562 and 0.548, respectively.

Regarding KKHKKGQMQKIN, the protein stability index in series [1] was 0.626; in series [2], 0.209.

Take KKHKKGQRQKIN: the protein stability index in series [1] amounted to 0.599; in series [2], 0.0819.

With KKHKKGQWQKIN, the values for the protein stability index in series [1] and in series [2] were 0.556 and 0.106, respectively.

In the case of KKHKKYQKQKIN, the protein stability index in series [1] is 0.587; in series [2] it was 0.0518.

With KKHKPGQKQKIN, the protein stability index in series [1] was 0.607; in series [2] it was 0.143.

In the case of KKHKWGQKQKIN, the protein stability index came to 0.589 in series [1] and 0.05 in series [2].

In the case of KKHKYGQKQKIN, the protein stability index in series [1] is 0.613; in series [2], 0.067.

As for KKHLKGQKQKIN, the protein stability index came to 0.608 in series [1] and 0.0828 in series [2].

For KKHQKGQKQKIN, the results for the protein stability index in series [1] and in series [2] were 0.597 and 0.0868, respectively.

On to KNHKKGQKQKIN, for which the protein stability index in series [1] is 0.61; in series [2], 0.121.

For KSMRWTFRYWVN, the results for the protein stability index in series [1] and in series [2] were 0.578 and 0.0597, respectively.

Turning to LAVYLSCVACIN, the protein stability index in series [1] stood at 0.0886; in series [2], 0.0214.

For the sequence LCVYLSCVACIN, the protein stability index in series [1] stood at 0.0253; in series [2] it was 0.0138.

With LFILRQKMNHQN, the protein stability index in series [1] worked out at 0.692; in series [2], 0.126.

In the case of LKHLRQKMNHQN, the protein stability index is 0.712 in series [1] and 0.175 in series [2].

In the case of LKILAQKMNHQN, the protein stability index was determined as 0.667 in series [1] and 0.229 in series [2].

As for LKILCQKMNHQN, the protein stability index in series [1] was found to be 0.71; in series [2] it was 0.246.

Consider LKILRCKMNHQN, for which the protein stability index was 0.625 in series [1] and 0.17 in series [2].

On to LKILRQKMNHQK, for which the figures for the protein stability index in series [1] and in series [2] were 0.682 and 0.666, respectively.

Take LKILRQKMNHQNA: the protein stability index in series [1] was 0.681; in series [2], 0.658.

LKILRQKMNHQND: the protein stability index in series [1] is 0.724; in series [2], 0.675.

As to LKILRQKMNHQNP, the protein stability index in series [1] was 0.688; in series [2], 0.678.

LKILRQKMNHQNT: the results for the protein stability index in series [1] and in series [2] were 0.692 and 0.671, respectively.

For LKILRQKMNHQR, the protein stability index in series [1] turned out to be 0.669; in series [2], 0.67.

Turning to LKILRQKMNMQN, the results for the protein stability index in series [1] and in series [2] were 0.641 and 0.281, respectively.

On to LKILRQVMNHQN, for which the figures for the protein stability index in series [1] and in series [2] were 0.663 and 0.315, respectively.

For the sequence LKIMRQKMNHQN, the protein stability index was found to be 0.664 in series [1] and 0.23 in series [2].

Take LKLLRQKMNHQN: the protein stability index in series [1] was determined as 0.682; in series [2], 0.208.

Take LKVLRQKMNHQN: the protein stability index was 0.675 in series [1] and 0.177 in series [2].

As to LMVYLSCVACIN, the figures for the protein stability index in series [1] and in series [2] were 0.0607 and 0.0204, respectively.

Turning to LNILRQKMNHQN, the protein stability index in series [1] worked out at 0.622; in series [2], 0.121.

For LPILRQKMNHQN, the protein stability index worked out at 0.683 in series [1] and 0.125 in series [2].

As to LPVYLSCVACIN, the protein stability index was determined as 0.19 in series [1] and 0.055 in series [2].

With LTILRQKMNHQN, the protein stability index in series [1] came out at 0.679; in series [2], 0.123.

Regarding LVLYLSCVACIN, the protein stability index in series [1] worked out at 0.0273; in series [2], 0.0137.

For the sequence LVQYLSCVACIN, the protein stability index in series [1] was determined as 0.18; in series [2] it was 0.0238.

Take LVVCLSCVACIN: the results for the protein stability index in series [1] and in series [2] were 0.034 and 0.0139, respectively.

On to LVVGLSCVACIN, for which the values for the protein stability index in series [1] and in series [2] were 0.215 and 0.159, respectively.

As to LVVMLSCVACIN, the protein stability index in series [1] worked out at 0.0276; in series [2], 0.0128.

Consider LVVYLLCVACIN, for which the figures for the protein stability index in series [1] and in series [2] were 0.0739 and 0.0159, respectively.

In the case of LVVYLSCAACIN, the protein stability index came to 0.166 in series [1] and 0.0321 in series [2].

LVVYLSCEACIN: the protein stability index in series [1] amounted to 0.0235; in series [2], 0.0807.

In the case of LVVYLSCKACIN, the protein stability index turned out to be 0.0225 in series [1] and 0.0136 in series [2].

LVVYLSCVACAN: the protein stability index in series [1] was determined as 0.0251; in series [2], 0.0124.
